Reference: the supplement of paper PMC9112550, “Optimization of the antimicrobial peptide Bac7 by deep mutational scanning” (BMC Biology, 2022)

System: Escherichia coli TOP10
Assay: shrunken log2 fold change of peptide-encoding DNA abundance (4.5 h post-induction vs induction); higher = less antimicrobial activity (less host growth inhibition)
Settings: time post-induction: 4.5 h; library: site-saturation at positions 5, 18, 19, 20
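Also: peptides expressed intracellularly from a pBAD plasmid library in pooled LB shake-flask culture, induced with 0.3% L-arabinose, DNA abundance read by NGS, three biological replicates, DESeq2 with apeglm shrinkage.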

Sequence: RRIRCRPPRLPRPRPRPYQQPRP
- shrunken log2 fold change: -0.12

Sequence: RRIRSRPPRLPRPRPRPSINPRP
- shrunken log2 fold change: -0.567

Sequence: RRIRARPPRLPRPRPRPTMFPRP
- shrunken log2 fold change: 0.121

Sequence: RRIRRRPPRLPRPRPRPQMSPRP
- shrunken log2 fold change: 0.0441

Sequence: RRIRPRPPRLPRPRPRPFIEPRP
- shrunken log2 fold change: -0.245

Sequence: RRIRIRPPRLPRPRPRPFLYPRP
- shrunken log2 fold change: -0.84

Sequence: RRIRQRPPRLPRPRPRPISRPRP
- shrunken log2 fold change: -0.0404

Sequence: RRIRKRPPRLPRPRPRPDDCPRP
- shrunken log2 fold change: 0.149

Sequence: RRIRHRPPRLPRPRPRPTSIPRP
- shrunken log2 fold change: 0.0484

Sequence: RRIRARPPRLPRPRPRPHNLPRP
- shrunken log2 fold change: -0.201

Sequence: RRIRNRPPRLPRPRPRPVQAPRP
- shrunken log2 fold change: -0.00783

Sequence: RRIRFRPPRLPRPRPRPRCLPRP
- shrunken log2 fold change: -0.124

Sequence: RRIRLRPPRLPRPRPRPGCMPRP
- shrunken log2 fold change: 0.646

Sequence: RRIRVRPPRLPRPRPRPNHEPRP
- shrunken log2 fold change: -0.547

Sequence: RRIRNRPPRLPRPRPRPLFFPRP
- shrunken log2 fold change: -0.217

Sequence: RRIRQRPPRLPRPRPRPRNRPRP
- shrunken log2 fold change: 0.0911

Sequence: RRIRHRPPRLPRPRPRPMFGPRP
- shrunken log2 fold change: -0.000925

Sequence: RRIRRRPPRLPRPRPRPYMMPRP
- shrunken log2 fold change: -0.699

Sequence: RRIRCRPPRLPRPRPRPTCGPRP
- shrunken log2 fold change: 0.111

Sequence: RRIRQRPPRLPRPRPRPTNKPRP
- shrunken log2 fold change: -0.579

Sequence: RRIRHRPPRLPRPRPRPHYTPRP
- shrunken log2 fold change: -0.903

Sequence: RRIRCRPPRLPRPRPRPTTKPRP
- shrunken log2 fold change: -0.0602

Sequence: RRIRNRPPRLPRPRPRPDFCPRP
- shrunken log2 fold change: 0.0953

Sequence: RRIRDRPPRLPRPRPRPHYNPRP
- shrunken log2 fold change: -0.635

Sequence: RRIRERPPRLPRPRPRPQTHPRP
- shrunken log2 fold change: -0.359

Sequence: RRIRSRPPRLPRPRPRPEIEPRP
- shrunken log2 fold change: 0.0942

Sequence: RRIRLRPPRLPRPRPRPIRNPRP
- shrunken log2 fold change: -0.45

Sequence: RRIRKRPPRLPRPRPRPVCGPRP
- shrunken log2 fold change: 0.62

Sequence: RRIRTRPPRLPRPRPRPKKKPRP
- shrunken log2 fold change: -0.125

Sequence: RRIRSRPPRLPRPRPRPARSPRP
- shrunken log2 fold change: 0.158

Sequence: RRIRKRPPRLPRPRPRPWFMPRP
- shrunken log2 fold change: -0.202

Sequence: RRIRRRPPRLPRPRPRPQLHPRP
- shrunken log2 fold change: -0.00676

Sequence: RRIRRRPPRLPRPRPRPFVAPRP
- shrunken log2 fold change: 0.354

Sequence: RRIRRRPPRLPRPRPRPINSPRP
- shrunken log2 fold change: -0.314

Sequence: RRIRSRPPRLPRPRPRPAYTPRP
- shrunken log2 fold change: 0.0457

Sequence: RRIRFRPPRLPRPRPRPMLVPRP
- shrunken log2 fold change: -0.0924

Sequence: RRIRPRPPRLPRPRPRPFMEPRP
- shrunken log2 fold change: -0.554

Sequence: RRIRSRPPRLPRPRPRPWWKPRP
- shrunken log2 fold change: -0.0475

Sequence: RRIRSRPPRLPRPRPRPETTPRP
- shrunken log2 fold change: 0.461

Sequence: RRIRKRPPRLPRPRPRPSELPRP
- shrunken log2 fold change: 0.141

Sequence: RRIRNRPPRLPRPRPRPRGNPRP
- shrunken log2 fold change: 0.26

Sequence: RRIRARPPRLPRPRPRPSFNPRP
- shrunken log2 fold change: -0.268

Sequence: RRIRARPPRLPRPRPRPDDPPRP
- shrunken log2 fold change: 0.632

Sequence: RRIRLRPPRLPRPRPRPCFRPRP
- shrunken log2 fold change: 0.0965

Sequence: RRIRQRPPRLPRPRPRPNRWPRP
- shrunken log2 fold change: -0.0161

Sequence: RRIRWRPPRLPRPRPRPVDDPRP
- shrunken log2 fold change: -0.0142

Sequence: RRIRDRPPRLPRPRPRPSRSPRP
- shrunken log2 fold change: 0.0199

Sequence: RRIRARPPRLPRPRPRPTWGPRP
- shrunken log2 fold change: 0.625

Sequence: RRIRQRPPRLPRPRPRPSWWPRP
- shrunken log2 fold change: -0.176

Sequence: RRIRHRPPRLPRPRPRPFPFPRP
- shrunken log2 fold change: -0.758

Sequence: RRIRGRPPRLPRPRPRPWWLPRP
- shrunken log2 fold change: 0.0131

Sequence: RRIRDRPPRLPRPRPRPFCCPRP
- shrunken log2 fold change: 0.26

Sequence: RRIRSRPPRLPRPRPRPFSHPRP
- shrunken log2 fold change: -0.388

Sequence: RRIRGRPPRLPRPRPRPVLPPRP
- shrunken log2 fold change: 0.383

Sequence: RRIRVRPPRLPRPRPRPMKIPRP
- shrunken log2 fold change: -0.232

Sequence: RRIRDRPPRLPRPRPRPEVPPRP
- shrunken log2 fold change: 0.0916

Sequence: RRIRMRPPRLPRPRPRPFFNPRP
- shrunken log2 fold change: -0.0839

Sequence: RRIRKRPPRLPRPRPRPTFGPRP
- shrunken log2 fold change: 0.0674

Sequence: RRIRGRPPRLPRPRPRPRECPRP
- shrunken log2 fold change: 0.562

Sequence: RRIRARPPRLPRPRPRPEDMPRP
- shrunken log2 fold change: 0.816

Sequence: RRIRQRPPRLPRPRPRPDVKPRP
- shrunken log2 fold change: -0.0135

Sequence: RRIRVRPPRLPRPRPRPRVWPRP
- shrunken log2 fold change: 0.736

Sequence: RRIRCRPPRLPRPRPRPCSPPRP
- shrunken log2 fold change: -0.241

Sequence: RRIRLRPPRLPRPRPRPCHRPRP
- shrunken log2 fold change: 0.00936

Sequence: RRIRARPPRLPRPRPRPMDRPRP
- shrunken log2 fold change: 0.108

Sequence: RRIRRRPPRLPRPRPRPLATPRP
- shrunken log2 fold change: 0.882

Sequence: RRIRKRPPRLPRPRPRPVHRPRP
- shrunken log2 fold change: -0.0578

Sequence: RRIRTRPPRLPRPRPRPQSHPRP
- shrunken log2 fold change: -0.207

Sequence: RRIRGRPPRLPRPRPRPPTHPRP
- shrunken log2 fold change: 0.617

Sequence: RRIRFRPPRLPRPRPRPHNKPRP
- shrunken log2 fold change: 0.0525

Sequence: RRIRERPPRLPRPRPRPVWCPRP
- shrunken log2 fold change: -0.156

Sequence: RRIRGRPPRLPRPRPRPYNFPRP
- shrunken log2 fold change: -0.35

Sequence: RRIRHRPPRLPRPRPRPFGMPRP
- shrunken log2 fold change: -0.0621

Sequence: RRIRMRPPRLPRPRPRPMVCPRP
- shrunken log2 fold change: 0.204

Sequence: RRIRKRPPRLPRPRPRPMLLPRP
- shrunken log2 fold change: -0.0797

Sequence: RRIRLRPPRLPRPRPRPHWNPRP
- shrunken log2 fold change: -0.315

Sequence: RRIRQRPPRLPRPRPRPRQEPRP
- shrunken log2 fold change: 0.0978

Sequence: RRIRKRPPRLPRPRPRPQKDPRP
- shrunken log2 fold change: 0.00486

Sequence: RRIRPRPPRLPRPRPRPFFKPRP
- shrunken log2 fold change: -0.0682

Sequence: RRIRQRPPRLPRPRPRPNCMPRP
- shrunken log2 fold change: 0.188

Sequence: RRIRYRPPRLPRPRPRPMWLPRP
- shrunken log2 fold change: -0.224

Sequence: RRIRARPPRLPRPRPRPNVSPRP
- shrunken log2 fold change: -0.11

Sequence: RRIRQRPPRLPRPRPRPHIKPRP
- shrunken log2 fold change: -0.878

Sequence: RRIRPRPPRLPRPRPRPFVCPRP
- shrunken log2 fold change: -0.395

Sequence: RRIRQRPPRLPRPRPRPTKDPRP
- shrunken log2 fold change: -0.198

Sequence: RRIRMRPPRLPRPRPRPQAPPRP
- shrunken log2 fold change: 0.718

Sequence: RRIRTRPPRLPRPRPRPTRLPRP
- shrunken log2 fold change: 0.126

Sequence: RRIRKRPPRLPRPRPRPAWGPRP
- shrunken log2 fold change: 0.694

Sequence: RRIRCRPPRLPRPRPRPDVFPRP
- shrunken log2 fold change: -0.151

Sequence: RRIRPRPPRLPRPRPRPCWCPRP
- shrunken log2 fold change: -0.0719

Sequence: RRIRLRPPRLPRPRPRPRAHPRP
- shrunken log2 fold change: 0.244

Sequence: RRIRARPPRLPRPRPRPNSKPRP
- shrunken log2 fold change: -0.155

Sequence: RRIRIRPPRLPRPRPRPGDMPRP
- shrunken log2 fold change: -0.763

Sequence: RRIRKRPPRLPRPRPRPRFAPRP
- shrunken log2 fold change: 0.614

Sequence: RRIRMRPPRLPRPRPRPVYMPRP
- shrunken log2 fold change: -0.214

Sequence: RRIRVRPPRLPRPRPRPDDEPRP
- shrunken log2 fold change: -0.125

Sequence: RRIRSRPPRLPRPRPRPMWDPRP
- shrunken log2 fold change: 0.293

Sequence: RRIRLRPPRLPRPRPRPCVWPRP
- shrunken log2 fold change: -0.0182

Sequence: RRIRRRPPRLPRPRPRPKMGPRP
- shrunken log2 fold change: -0.0227

Sequence: RRIRDRPPRLPRPRPRPCISPRP
- shrunken log2 fold change: 0.0261

Sequence: RRIRSRPPRLPRPRPRPGFLPRP
- shrunken log2 fold change: 0.078

Sequence: RRIRHRPPRLPRPRPRPKQYPRP
- shrunken log2 fold change: -0.439

Sequence: RRIRYRPPRLPRPRPRPQMNPRP
- shrunken log2 fold change: -1.27

Sequence: RRIRIRPPRLPRPRPRPVHDPRP
- shrunken log2 fold change: -0.0869

Sequence: RRIRGRPPRLPRPRPRPCAFPRP
- shrunken log2 fold change: 2.03

Sequence: RRIRMRPPRLPRPRPRPSTSPRP
- shrunken log2 fold change: -0.0821

Sequence: RRIRKRPPRLPRPRPRPVCIPRP
- shrunken log2 fold change: 0.0558

Sequence: RRIRPRPPRLPRPRPRPTWCPRP
- shrunken log2 fold change: 0.08

Sequence: RRIRWRPPRLPRPRPRPGQVPRP
- shrunken log2 fold change: -0.0635

Sequence: RRIRNRPPRLPRPRPRPTAQPRP
- shrunken log2 fold change: 0.136

Sequence: RRIRVRPPRLPRPRPRPPPKPRP
- shrunken log2 fold change: 1.11

Sequence: RRIRFRPPRLPRPRPRPEFPPRP
- shrunken log2 fold change: -0.132

Sequence: RRIRLRPPRLPRPRPRPLNGPRP
- shrunken log2 fold change: -0.217

Sequence: RRIRFRPPRLPRPRPRPRSYPRP
- shrunken log2 fold change: -0.268

Sequence: RRIRRRPPRLPRPRPRPDWAPRP
- shrunken log2 fold change: -0.221

Sequence: RRIRKRPPRLPRPRPRPRCTPRP
- shrunken log2 fold change: 0.555

Sequence: RRIRARPPRLPRPRPRPVSMPRP
- shrunken log2 fold change: 0.229

Sequence: RRIRQRPPRLPRPRPRPRCSPRP
- shrunken log2 fold change: -0.232

Sequence: RRIRYRPPRLPRPRPRPMWAPRP
- shrunken log2 fold change: -0.0298

Sequence: RRIRHRPPRLPRPRPRPLHNPRP
- shrunken log2 fold change: -0.602

Sequence: RRIRQRPPRLPRPRPRPGFHPRP
- shrunken log2 fold change: 0.00101

Sequence: RRIRHRPPRLPRPRPRPVNQPRP
- shrunken log2 fold change: -0.0313

Sequence: RRIRIRPPRLPRPRPRPRYTPRP
- shrunken log2 fold change: -0.156

Sequence: RRIRVRPPRLPRPRPRPHTTPRP
- shrunken log2 fold change: -0.26

Sequence: RRIRRRPPRLPRPRPRPVQAPRP
- shrunken log2 fold change: 0.464
